Test results as given in publication PMC7278358, “Kinetic parameters of human aspartate/asparagine–β-hydroxylase suggest that it has a possible function in oxygen sensing” (The Journal of Biological Chemistry, 2020).
Several values for one entry are separate records, joined by “and”; a condition that tells them apart may be missing. Equal entries are not always repeated. Where two headings read alike, the source gives them in different places. Values belong to the molecule of their own block, whether it stands above or below them. Positions of bridges follow the written chain, without caps; N, C: chain ends. Non-standard residues stand in square brackets, D forms with d. No end group written: not given here.

Tests used:
[1] = biological target: T1, human His6–AspH315–758 (Homo sapiens, UniProt Q12797); test: AspH activity assay: SPE-MS time course of peptide hydroxylation; format: biochemical; settings: 0.1 μM His6–AspH315–758, 2.0 μM peptide, 100 μM LAA, 10 μM FAS, 10 μM 2OG, 50 mM HEPES pH 7.5, 20 °C
T1 construct: a pET-28a(+) vector encoding for N-terminal His6-tagged AspH315–758 (His6–AspH315–758) was transformed into Escherichia coli BL21 (DE3) cells; made in house; host or cells: Escherichia coli BL21 (DE3)
T1 sequence (Q12797 315-758): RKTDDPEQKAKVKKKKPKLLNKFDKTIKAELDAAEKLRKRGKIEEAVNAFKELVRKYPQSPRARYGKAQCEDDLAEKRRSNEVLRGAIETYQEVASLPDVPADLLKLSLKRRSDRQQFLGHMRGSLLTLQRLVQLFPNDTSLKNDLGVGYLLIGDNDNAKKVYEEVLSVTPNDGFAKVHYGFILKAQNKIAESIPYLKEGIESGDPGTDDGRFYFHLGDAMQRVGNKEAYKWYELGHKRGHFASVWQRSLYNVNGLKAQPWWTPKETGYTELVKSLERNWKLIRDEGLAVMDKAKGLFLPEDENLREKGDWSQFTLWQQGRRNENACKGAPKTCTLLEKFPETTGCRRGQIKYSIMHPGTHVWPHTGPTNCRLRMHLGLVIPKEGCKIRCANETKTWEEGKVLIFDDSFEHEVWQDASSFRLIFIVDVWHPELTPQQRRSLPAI
Method: The substrate mixture (1.0 ml) containing 2.4 μM peptide, 120 μM LAA, 12 μM FAS, and 12 μM 2OG in 50 mM HEPES buffer (pH 7.5) was added into a well of a 2-ml volume 96-well assay plate (Greiner) at 20 °C under an ambient atmosphere. A blank sample was analyzed using a RapidFire RF 360 high-throughput sampling robot (Agilent) attached to an Agilent 6530 accurate mass quadrupole TOF mass spectrometer operated in the positive ionization mode. The enzyme mixture (0.2 ml), containing 0.6 μM His6–AspH315–758 in 50 mM HEPES buffer (pH 7.5), was then added to the well and thoroughly mixed. The RapidFire sampling robot was programmed to analyze 1 sample/min. The following SPE-MS conditions were used: assay samples were aspirated under vacuum for 0.4 s and loaded onto a C4 SPE cartridge. After loading, the C4 SPE cartridge was washed with 0.1% (v/v) aqueous formic acid to remove nonvolatile buffer salts (5 s, 1.5 ml/min). The peptide was then eluted from the SPE cartridge with 0.1% (v/v) aqueous formic acid in 85/15 (v/v) acetonitrile/water into the mass spectrometer (5 s, 1.25 ml/min). The SPE cartridge was re-equilibrated with 0.1% (v/v) aqueous formic acid (1 s, 1.25 ml/min). The mass spectrometer parameters were capillary voltage (3500 V), fragmentor voltage (150 V), gas temperature (350 °C), gas flow (12 liters/min). The m/z + 2 charge states of the substrate peptide and the product (hydroxylated) peptide were used to extract ion chromatogram data; peak areas were integrated using RapidFire Integrator software (Agilent). The data were exported into Microsoft Excel and used to calculate the percentage of conversion of the hydroxylation reaction using the equation: % conversion = 100 × (integral product peptide)/(integral substrate peptide + integral product peptide).

[2] = biological target: T2, His6–AspH_(315–758) (human) (UniProt Q12797)
T2 sequence: T1 sequence (Q12797 315-758)

[3] = biological target: T1, human His6–AspH315–758; test: AspH steady-state kinetics from initial hydroxylation rates (SPE-MS, Michaelis–Menten); format: biochemical
Method: (§1) The reactions were monitored with a rate of 1 sample/25 s using the same SPE-MS configuration as described above. The data were analyzed as described above, and the slopes of the initial reaction rates (Fig. S6) were fitted to a Michaelis-Menten plot using nonlinear regression (GraphPad Prism 5). […] The reactions were monitored by SPE-MS with a rate of 1 sample/25 s using identical configurations as before. The data were analyzed as described, and the slopes of the initial reaction rates (Fig. […] The Morrison equation is as follows, where I is the inhibitor concentration, Ki is the dissociation constant of the inhibitor, ET is the total concentration of active enzyme, and vi/v0 is the fractional enzyme activity ([94]).

[4] = tested on: bovine AspH; set-up: method as in PMID 2187868; settings: cited from earlier work
[5] = tested on: human 2OG oxygenases, including the PHDs and FIH; settings: read-out: 2OG Km app, most other human 2OG oxygenases; cited from earlier work
[6] = biological target: T2, His6–AspH_(315–758) (human); remark: listed apart in the source
[7] = substrate: O=C1O[C@H]([C@@H](O)CO)C(O)=C1O; test: AspH steady-state kinetics from initial hydroxylation rates (SPE-MS, Michaelis–Menten); format: biochemical, human; settings: other: LAA varied; 50 μM FAS, 50 μM 2OG; hFX–CP101–119 substrate; n = 3; pH 7.5; 20.0 °C
Method: as §1

[8] = 2OG varied, 50 μM FAS, hFX–CP101–119 substrate, n = 3
[9] = Fe(II) varied, in the absence of LAA, 50 μM 2OG, hFX–CP101–119 substrate, n = 3
[10] = Fe(II) varied, in the presence of LAA (100 μM), 50 μM 2OG, hFX–CP101–119 substrate, n = 3

Molecule: O=C(O)CCC(=O)C(=O)O [2OG, 2-oxoglutarate]
kcat [3, 8]: 0.19 ± 0.03 s⁻¹
kcat/Km [3, 8]: 320000 ± 70000 M⁻¹ s⁻¹
vmax app ([3]; 2OG varied, 50 μM FAS, monitoring hydroxylation of hFX–CP101–119, pH 7.5, 20 °C, n = 3): 0.0168 ± 0.0005 µM/s
Km ([3]; 2OG varied, 50 μM FAS, monitoring hydroxylation of hFX–CP101–119, pH 7.5, 20 °C, n = 3, read-out: Km app): ~0.6 µM and 0.6 µM
Km ([4]; read-out: 2OG Km app): ~5 µM
Km [5]: 1 to 25 µM

Molecule: hFXII–CP_(110–128) (from UniProt P00748 110-128) (peptide)
hydroxylation of the peptide by AspH (SPE-MS), t = 15 min to 200 min [6]: < 1%

Molecule: hFX–CP101–119: thioether-linked cyclic peptide of hFX amino acids 101–119, Cys110 thiol linked to N-terminal chloroacetyl group, C-terminal amide ({CH2CO}-[dA]KDGLGEYTCTSLEGFEGK-NH2; thioether N-10; SMILES CC(C)C[C@@H]1NC(=O)CNC(=O)[C@H](CC(=O)O)NC(=O)[C@H](CCCCN)NC(=O)[C@@H](C)NC(=O)CSC[C@@H](C(=O)N[C@H](C(=O)N[C@@H](CO)C(=O)N[C@@H](CC(C)C)C(=O)N[C@@H](CCC(=O)O)C(=O)NCC(=O)N[C@@H](Cc2ccccc2)C(=O)N[C@@H](CCC(=O)O)C(=O)NCC(=O)N[C@@H](CCCCN)C(N)=O)[C@@H](C)O)NC(=O)[C@H]([C@@H](C)O)NC(=O)[C@H](Cc2ccc(O)cc2)NC(=O)[C@H](CCC(=O)O)NC(=O)CNC1=O)
vmax ([3]; peptide as varied substrate, 0.1 μM His6–AspH315–758, 100 μM LAA, 20 μM FAS, 20 μM 2OG, 50 mM HEPES pH 7.5, 20 °C, SPE-MS, mean ± S.D., n = 3): 0.0178 ± 0.0013 µM/s
Km ([3]; peptide as varied substrate, 0.1 μM His6–AspH315–758, 100 μM LAA, 20 μM FAS, 20 μM 2OG, 50 mM HEPES pH 7.5, 20 °C, SPE-MS, mean ± S.D., n = 3, read-out: Km): 1.19 ± 0.26 µM
kcat/Km ([3]; peptide as varied substrate, 100 μM LAA, 20 μM FAS, 20 μM 2OG, pH 7.5, 20 °C, mean ± S.D., n = 3): 170000 ± 50000 M⁻¹ s⁻¹
kcat ([3]; peptide as varied substrate, based on active enzyme 90.8 nM (2,4-PDCA titration), 100 μM LAA, 20 μM FAS, 20 μM 2OG, pH 7.5, 20 °C, mean ± S.D., n = 3): 0.20 ± 0.03 s⁻¹
substrate/product inhibition of AspH activity ([3]; up to 16 μM hFX–CP101–119): neither hFX–CP101–119 nor its hydroxylated product inhibited AspH activity
time to complete hydroxylation ([1]; SPE-MS): 7 min
Hydroxylation t = 15 min ([1]; % conversion by SPE-MS): >95%
Hydroxylation t = 200 min ([1]; % conversion by SPE-MS): >95%
Hydroxylation t = 15 min ([1]; % conversion by SPE-MS, listed as hFX-CP101-119): > 95%

Molecule: ammonium iron(II) sulfate hexahydrate [Fe(II)]
vmax app ([3]; Fe(II) (FAS) varied, in the absence of LAA, 50 μM 2OG, monitoring hydroxylation of hFX–CP101–119, pH 7.5, 20 °C, n = 3): 0.0168 ± 0.0004 µM/s
Km ([3]; Fe(II) (FAS) varied, in the absence of LAA, 50 μM 2OG, monitoring hydroxylation of hFX–CP101–119, pH 7.5, 20 °C, n = 3, read-out: Km app): 4.76 ± 0.48 µM
vmax app ([3]; Fe(II) (FAS) varied, in the presence of LAA (100 μM), 50 μM 2OG, monitoring hydroxylation of hFX–CP101–119, pH 7.5, 20 °C, n = 3): 0.0171 ± 0.0005 µM/s
Km ([3]; Fe(II) (FAS) varied, in the presence of LAA (100 μM), 50 μM 2OG, monitoring hydroxylation of hFX–CP101–119, pH 7.5, 20 °C, n = 3, read-out: Km app): 1.42 ± 0.16 µM
kcat [3, 9]: 0.19 ± 0.03 s⁻¹
kcat/Km [3, 9]: 40000 ± 10000 M⁻¹ s⁻¹
kcat [3, 10]: 0.19 ± 0.03 s⁻¹
kcat/Km [3, 10]: 130000 ± 30000 M⁻¹ s⁻¹
Km ([4]; read-out: Km app for Fe(II)): 3 µM

B1: human His6–AspH315–758 (Homo sapiens) (protein)
chain: T1 sequence (Q12797 315-758)
notes: a pET-28a(+) vector encoding for N-terminal His6-tagged AspH315–758 (His6–AspH315–758) was transformed into Escherichia coli BL21 (DE3) cells; made in house; host or cells: Escherichia coli BL21 (DE3)
kcat [7]: 0.16 ± 0.03 s⁻¹

More lines, now with the values ahead:

conversion at which hydroxylation slowed (consumption of the noncanonical disulfide isomer) ([1]; after 5 min): ~45%
Molecule: hFX–EGFD1_86–124: EGFD1 (amino acids 86–124) of human coagulation factor X (DGDQCETSPCQNQGKCKDGLGEYTCTCLEGFEGKNCELF-NH2; also: mixture of canonical and noncanonical disulfide isomers; UniProt P00742 86-124, looked up, fragment)

Km of AspH for the peptide substrate (steady-state kinetics of peptide hydroxylation, SPE-MS, 50 mM HEPES pH 7.5, 20 °C) [2]: 36.5 μM
Molecule: hC1s–CP_(147–165) (from UniProt P09871 147-165) (peptide)

Km of AspH for the peptide substrate (steady-state kinetics of peptide hydroxylation, SPE-MS, 50 mM HEPES pH 7.5, 20 °C) [2]: 3 μM
Molecule: hC1r–CP_(165–183) (from UniProt P00736 165-183) (peptide)

Km of AspH for the peptide substrate (steady-state kinetics of peptide hydroxylation, SPE-MS, 50 mM HEPES pH 7.5, 20 °C) [2]: 1.71 μM
Molecule: hProC–CP_(111–129) (from UniProt P04070 111-129) (peptide)

Km of AspH for the peptide substrate (steady-state kinetics of peptide hydroxylation, SPE-MS, 50 mM HEPES pH 7.5, 20 °C) [2]: 1.19 μM
Molecule: hFX–CP_(101–119) (from UniProt P00742 101-119) (peptide)
